Data on two molecules can be found in patent US20260022175A1 (Chugai, published 2026).

Assay [1] has as its target T1, human FcγRIa extracellular domain with C-terminal His-tag (human, UniProt P12314 16-292).
T1 construct: extracellular domain; also called hFcγR Ia; hFcγRIa
Kind of assay: SPR Biacore T200, Ab captured via Fab-lambda, pH 7.4, 25C.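 Also: antibodies captured on a streptavidin chip carrying biotinylated anti-Fab-lambda, with each FcγR injected as analyte in phosphate buffer. KD fitted by 1:1 Langmuir or steady-state model depending on receptor.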 For orientation: Surface plasmon resonance follows binding to a sensor surface in real time, without labels.

For assay [2], the target named is T2, human FcγRIIa R allotype extracellular domain with C-terminal His-tag (human, UniProt P12318 34-217).
T2 construct: extracellular domain; also called hFcγR IIa R
T2 sequence (looked up): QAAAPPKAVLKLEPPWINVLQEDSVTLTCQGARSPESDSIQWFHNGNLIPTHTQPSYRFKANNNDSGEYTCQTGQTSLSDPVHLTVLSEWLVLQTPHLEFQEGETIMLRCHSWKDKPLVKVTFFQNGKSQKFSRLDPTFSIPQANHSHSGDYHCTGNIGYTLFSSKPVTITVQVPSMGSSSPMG
Described as above.

The target in assay [3] is T3, human FcγRIIa H allotype extracellular domain with C-terminal His-tag (human, UniProt P12318 34-217).
T3 construct: extracellular domain; also called hFcγR IIa H
T3 sequence (looked up): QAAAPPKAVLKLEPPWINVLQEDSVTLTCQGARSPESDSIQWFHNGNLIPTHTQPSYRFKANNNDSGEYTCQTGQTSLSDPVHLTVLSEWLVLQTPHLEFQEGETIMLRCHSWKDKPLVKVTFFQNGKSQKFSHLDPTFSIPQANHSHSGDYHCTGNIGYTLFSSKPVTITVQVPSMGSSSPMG
The description is as above.

The target in assay [4] is T4, human FcγRIIIa F allotype extracellular domain with C-terminal His-tag (human, UniProt P08637 17-208).
T4 construct: extracellular domain; also called hFcγR IIIa F
T4 sequence (P08637 17-208): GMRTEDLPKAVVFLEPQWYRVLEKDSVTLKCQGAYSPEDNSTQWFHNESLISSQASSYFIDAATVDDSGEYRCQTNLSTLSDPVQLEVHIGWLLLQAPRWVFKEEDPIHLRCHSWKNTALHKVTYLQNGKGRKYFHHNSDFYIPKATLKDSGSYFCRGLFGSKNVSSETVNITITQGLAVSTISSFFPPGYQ
The assay is described as above.

The target of assay [5] is T5, human FcγRIIIa V allotype extracellular domain with C-terminal His-tag (human, UniProt P08637 17-208).
T5 construct: extracellular domain; also called hFcγR IIIa V
T5 sequence (P08637 17-208 F176V): as the sequence (P08637 17-208) above, with F160V counted along it
Described as above.

Assay [6] has as its target T6, human FcγRIIb extracellular domain with C-terminal His-tag (human, UniProt P31994 43-217).
T6 construct: extracellular domain; also called hFcγR IIb
T6 sequence (looked up): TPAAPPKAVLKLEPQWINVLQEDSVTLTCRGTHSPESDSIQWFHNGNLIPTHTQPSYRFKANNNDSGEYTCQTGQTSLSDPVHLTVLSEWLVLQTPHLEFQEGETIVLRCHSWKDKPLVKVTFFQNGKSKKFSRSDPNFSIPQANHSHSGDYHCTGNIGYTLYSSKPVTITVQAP
In words: SPR; FcγRIIb at 1000 nM, bound amount per unit captured Ab.

Assay [7] addresses T7, human FcRn (human, UniProt P55899 24-290; P61769 21-119).
T7 construct: Prepared by the method of WO 2010/107110; also called hFcRn
Kind of assay: SPR; KD of 04H1637-G1m/04L1610-lam1 divided by KD of variant.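 Also: biacore T200 SPR at 25 °C, antibodies captured on anti-Fab-lambda SA chip with receptor as analyte, running buffer pH 7.4 for FcγRs and pH 6.0 for FcRn.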

The target of assay [8] is T1, human FcγRIa extracellular domain with …. The description is as above.
Assay [9] has as its target T2, human FcγRIIa R allotype extracellular …. Described as above.
The target of assay [10] is T3, human FcγRIIa H allotype extracellular …. The description is as above.
For assay [11], the target named is T4, human FcγRIIIa F allotype extracellular …. Described as above.
Assay [12] concerns the target T5, human FcγRIIIa V allotype extracellular …. Described as above.
Assay [13] has as its target T6, human FcγRIIb extracellular domain with …. In words: SPR; binding amount divided by that of 04H1637-G1m/04L1610-lam1.
The target of assay [14] is T7, human FcRn. Kind of assay: SPR Biacore T200, Ab captured via Fab-lambda, pH 6.0, 25C, steady state.

T1 sequence (P12314 16-292): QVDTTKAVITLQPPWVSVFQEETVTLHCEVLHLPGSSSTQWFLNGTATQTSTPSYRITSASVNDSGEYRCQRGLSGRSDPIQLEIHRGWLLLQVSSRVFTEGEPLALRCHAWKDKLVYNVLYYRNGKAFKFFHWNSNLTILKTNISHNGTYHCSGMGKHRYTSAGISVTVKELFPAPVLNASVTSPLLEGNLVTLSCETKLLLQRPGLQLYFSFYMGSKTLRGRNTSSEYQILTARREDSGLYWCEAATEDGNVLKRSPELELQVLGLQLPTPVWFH
T7 sequence (P55899 24-290 limits assumed, chain 1 of 2): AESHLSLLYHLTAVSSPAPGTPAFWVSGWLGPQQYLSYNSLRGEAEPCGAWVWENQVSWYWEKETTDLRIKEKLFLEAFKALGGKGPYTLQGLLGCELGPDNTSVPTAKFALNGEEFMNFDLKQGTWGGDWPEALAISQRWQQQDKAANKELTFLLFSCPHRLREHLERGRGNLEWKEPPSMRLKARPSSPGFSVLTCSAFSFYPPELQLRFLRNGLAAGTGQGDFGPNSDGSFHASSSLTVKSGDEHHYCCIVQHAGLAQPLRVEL
T7 sequence (P61769 21-119 limits assumed, chain 2 of 2): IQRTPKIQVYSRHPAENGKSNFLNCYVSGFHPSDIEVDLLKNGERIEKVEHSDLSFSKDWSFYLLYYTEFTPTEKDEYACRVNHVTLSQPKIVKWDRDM

B1: 04H1654-KT473/04L1610-lam1//04H1656-HT482/04L1610-lam1 (antibody)
heavy 1: QVQLVESGGGVVQPGGSLRLSCAASGFTFSSKTMNWVRQAPGKGLEWVSSISTQSHYIYYARSVRGRFTISRDNAKNSLYLQMNSLRAEDTAVYYCARYGKREDMLWVFDYWGQGTLVTVSSASTKGPSVFPLAPSSKSTSGGTAALGCLVKDYFPEPVTVSWNSGALTSGVHTFPAVLQSSGLYSLSSVVTVPSSSLGTQTYICNVNHKPSNTKVDKRVEPKSCDKTHTCPPCPAPEFQWGPMVFLFPPKPKDVLMISRTPEVTCVVVDVSDEEPEVKFNWYVDGVEVHNAKTKPREEQYNATYRVVSVLPVLHQDWLNGKEYKCKVSNDALPAPIEKTISKAKGQPREPQVYTLPPSRKEMTKNQVSLTCLVKGFYPSDIAVEWESNGQPENNYKTTPPVLDSDGSFFLYSKLTVDKSRWQQGNVFSCSVMHEALHAHTTRKELSLSP
heavy 2: QVQLVESGGGVVQPGGSLRLSCAASGFTFSSKTMNWVRQAPGKGLEWVSSISTQSHYIYYAESVRGRFTISRDNAKNSLYLQMNSLRAEDTAVYYCARYGAREDMLWVFDYWGQGTLVTVSSASTKGPSVFPLAPSSKSTSGGTAALGCLVKDYFPEPVTVSWNSGALTSGVHTFPAVLQSSGLYSLSSVVTVPSSSLGTQTYICNVNHKPSNTKVDKRVEPKSCDKTHTCPPCPAPELLAGPSVFLFPPKPKDVLMISRTPEVTCVVVDVSHEEPEVKFNWYVDGVEVHNAKTKPREEQYNATYRVVSVLPVLHQDWLNGKEYKCKVSNDALPKPDEETISKAKGQPREPQVYTLPPSREEMTKNQVSLTCLVKGFYPSDIAVEWESNGQPENNYKTTPPVLDSDGSFFLYSKLTVDKSRWQQGNVFSCSVMHEALHAHTTREELSLSP
light: QSALTQPPSASGSPGQSVTISCEGPSTGVGDYNWVHWYQQHPGKAPKLMIYFTSKKPSGVPDRFSGSKSGNTASLTVSGLQAEDEADYYCQTYAAPLGPMFGGGTKLTVLGQPKAAPSVTLFPPSSEELQANKATLVCLISDFYPGAVTVAWKADSSPVKAGVETTTPSKQSNNKYAASSYLSLTPEQWKSHRSYSCQVTHEGSTVEKTVAPTECS
notes: Heterodimerized antibody with N434A/Y436T/Q438R/S440E; also called SW1610-ART6+ACT1
As to B1, the Kd (commonly the free concentration of one partner at which half of the binding sites on the other are occupied at equilibrium, for simple one-to-one binding) was found to be 0.046 nM in assay [1]; 150 nM in [2]; 81 nM in assay [3]; 3.8 nM in [4]; 2.1 nM in [5]; 580 nM in the assay with human FcRn [14]. Further, in assay [6], the Binding amount turned out to be 0.026. In addition, in the assay with human FcRn [7], the “Relative value to KD between G1m and hFcRn” value worked out at 2.3. The “Relative value to KD between G1m and hFcγRs” value in assay [8] was determined as 1.1; in assay [9], 13.9; in assay [10], 18; in [11], 363; in [12], 115. Besides, the Relative binding amount in assay [13] stood at 3.2.

B2: 04H1654-KT473/04L1612-lam1//04H1656-HT482/04L1612-lam1 (antibody)
heavy 1: QVQLVESGGGVVQPGGSLRLSCAASGFTFSSKTMNWVRQAPGKGLEWVSSISTQSHYIYYARSVRGRFTISRDNAKNSLYLQMNSLRAEDTAVYYCARYGKREDMLWVFDYWGQGTLVTVSSASTKGPSVFPLAPSSKSTSGGTAALGCLVKDYFPEPVTVSWNSGALTSGVHTFPAVLQSSGLYSLSSVVTVPSSSLGTQTYICNVNHKPSNTKVDKRVEPKSCDKTHTCPPCPAPEFQWGPMVFLFPPKPKDVLMISRTPEVTCVVVDVSDEEPEVKFNWYVDGVEVHNAKTKPREEQYNATYRVVSVLPVLHQDWLNGKEYKCKVSNDALPAPIEKTISKAKGQPREPQVYTLPPSRKEMTKNQVSLTCLVKGFYPSDIAVEWESNGQPENNYKTTPPVLDSDGSFFLYSKLTVDKSRWQQGNVFSCSVMHEALHAHTTRKELSLSP
heavy 2: QVQLVESGGGVVQPGGSLRLSCAASGFTFSSKTMNWVRQAPGKGLEWVSSISTQSHYIYYAESVRGRFTISRDNAKNSLYLQMNSLRAEDTAVYYCARYGAREDMLWVFDYWGQGTLVTVSSASTKGPSVFPLAPSSKSTSGGTAALGCLVKDYFPEPVTVSWNSGALTSGVHTFPAVLQSSGLYSLSSVVTVPSSSLGTQTYICNVNHKPSNTKVDKRVEPKSCDKTHTCPPCPAPELLAGPSVFLFPPKPKDVLMISRTPEVTCVVVDVSHEEPEVKFNWYVDGVEVHNAKTKPREEQYNATYRVVSVLPVLHQDWLNGKEYKCKVSNDALPKPDEETISKAKGQPREPQVYTLPPSREEMTKNQVSLTCLVKGFYPSDIAVEWESNGQPENNYKTTPPVLDSDGSFFLYSKLTVDKSRWQQGNVFSCSVMHEALHAHTTREELSLSP
light: QSALTQPPSASGSPGQSVTISCEGPSTGVGDYTYVHWYQQHPGKAPKLMIYFTSKKPSGVPDRFSGSKSGNTASLTVSGLQAEDEADYYCQTYAAPLGPMFGGGTKLTVLGQPKAAPSVTLFPPSSEELQANKATLVCLISDFYPGAVTVAWKADSSPVKAGVETTTPSKQSNNKYAASSYLSLTPEQWKSHRSYSCQVTHEGSTVEKTVAPTECS
notes: Heterodimerized antibody with N434A/Y436T/Q438R/S440E
In the case of B2, the Kd was found to be 0.048 nM in assay [1]; 150 nM in assay [2]; 91 nM in assay [3]; 3.9 nM in [4]; 2.2 nM in assay [5]; 620 nM with human FcRn [14]. In assay [6], this molecule had a Binding amount of 0.026. For the same molecule, in the assay with human FcRn [7], the “Relative value to KD between G1m and hFcRn” value stood at 2.1. Also, the “Relative value to KD between G1m and hFcγRs” value in assay [8] came to 1; in assay [9], 13.8; in [10], 16.2; in [11], 355; in assay [12], 110. Besides, in assay [13], the Relative binding amount is 3.2.
